Test results taken from patent US20110294729A1, “Novel Insulin Analogues” (Novo Nordisk A/S, priority 2008, published 2011).

Assays:
[1] = target: human insulin receptor B-isoform (human) (UniProt P06213); assay: SPA competition; ratio of the hIR-B column to the hIR-A column
[2] = target: human insulin receptor A-isoform (human) (UniProt P06213); assay: SPA competition against [125I]A14Tyr-insulin, solubilized hIR-A, analogue in yeast supernatant
[3] = target: human insulin receptor B-isoform (human) (UniProt P06213); assay: SPA competition against [125I]A14Tyr-insulin, solubilized hIR-B, analogue in yeast supernatant

## [A8H, B25H, B27E, desB30] human insulin (ligand)
[1]
  Ratio B/A (relative hIR-B affinity over relative hIR-A affinity): 2.1
[2]
  relative affinity [% of HI]: 67 % of HI
[3]
  relative affinity [% of HI]: 140 % of HI
